Reference: patent EP1012281B1

Tests used:
[1] = target: human lymph node derived calcium activated potassium channel polypeptide hKCa4, transiently expresse (human); experiment: cell-based or functional assay
[2] = target: cloned hKCa4 (SEQ ID NO:3) (human); experiment: cell-based or functional assay

apamin (from UniProt P01500 28-45) (peptide)
Kd for block of KCa current, whole cell patch clamp [1]: > 1000 nM

iberiotoxin (from UniProt P24663 1-37) (peptide)
Kd for block of KCa current, whole cell patch clamp [1]: > 1000 nM

kaliotoxin (from UniProt P24662 1-38) (peptide)
Kd for block of KCa current, whole cell patch clamp [1]: > 1000 nM

scyllatoxin (from UniProt P16341 1-31) (peptide)
Kd for block of KCa current, whole cell patch clamp [1]: > 1000 nM

QFTNVSCTTSKECWSVCQRLHNTSRGKCMNKKCRCYS (modifications not checked) [charybdotoxin, P13487 23-59]
IC50 as peptide blocker of the channel [2]: 5 to 10 nM
